Among the data in article PMC5531834 are Kd values, retold here.

Data set [1] deals with 8N-Gag (Δp6) (HIV-1). Kind of data set: FCS Cy5 quenching. The conditions noted are these: 20 mM Tris-HCl pH 7.5, 0.2 M NaCl (varied in salt titrations), 5 mM MgCl2, 1 uM ZnCl2, 0.1 mM PMSF, 1 mM BME, 0.05% Tween 20; 15 nM RNA; overnight 4 C, FCS at ….
Data set [2] relates to WT-Gag (HIV-1 Δp6 Gag) (HIV-1). The data set is described as follows: FCS Cy5 quenching, competition. Conditions: 20 mM Tris-HCl pH 7.5, 0.2 M NaCl (varied in salt titrations), 5 mM MgCl2, 1 uM ZnCl2, 0.1 mM PMSF, 1 mM BME, 0.05% Tween 20; 15 nM RNA; overnight 4 C, FCS at ….
Data set [3] relates to 8N-Gag (Δp6) (HIV-1). Kind of data set: FCS Cy5 quenching, competition. Conditions: 20 mM Tris-HCl pH 7.5, 0.2 M NaCl (varied in salt titrations), 5 mM MgCl2, 1 uM ZnCl2, 0.1 mM PMSF, 1 mM BME, 0.05% Tween 20; 15 nM RNA; overnight 4 C, FCS at ….
Data set [4] deals with WT-Gag (HIV-1 Δp6 Gag) (HIV-1). Kind of data set: FCS Cy5 quenching. The conditions noted are these: 20 mM Tris-HCl pH 7.5, 0.2 M NaCl (varied in salt titrations), 5 mM MgCl2, 1 uM ZnCl2, 0.1 mM PMSF, 1 mM BME, 0.05% Tween 20; 15 nM RNA; overnight 4 C, FCS at ….
For data set [5], the system named is 8N-Gag (Δp6) (HIV-1). Kind of data set: FCS Cy5 quenching. The conditions noted are these: 20 mM Tris-HCl pH 7.5, 0.2 M NaCl (varied in salt titrations), 5 mM MgCl2, 1 uM ZnCl2, 0.1 mM PMSF, 1 mM BME, 0.05% Tween 20; 15 nM RNA; overnight 4 C, FCS at …. This is another data set of the same source.
Data set [6] deals with Gag (Human immunodeficiency virus 1) (UniProt O93182). Conditions: cited from earlier work.
The subject of data set [7] is WT-Gag (HIV-1 Δp6 Gag) (HIV-1). The data set is described as follows: FCS Cy5 quenching. The conditions noted are these: 20 mM Tris-HCl pH 7.5, 0.2 M NaCl (varied in salt titrations), 5 mM MgCl2, 1 uM ZnCl2, 0.1 mM PMSF, 1 mM BME, 0.05% Tween 20; 15 nM RNA; overnight 4 C, FCS at …. This is another data set of the same source.

Chain of Gag (O93182 2-500): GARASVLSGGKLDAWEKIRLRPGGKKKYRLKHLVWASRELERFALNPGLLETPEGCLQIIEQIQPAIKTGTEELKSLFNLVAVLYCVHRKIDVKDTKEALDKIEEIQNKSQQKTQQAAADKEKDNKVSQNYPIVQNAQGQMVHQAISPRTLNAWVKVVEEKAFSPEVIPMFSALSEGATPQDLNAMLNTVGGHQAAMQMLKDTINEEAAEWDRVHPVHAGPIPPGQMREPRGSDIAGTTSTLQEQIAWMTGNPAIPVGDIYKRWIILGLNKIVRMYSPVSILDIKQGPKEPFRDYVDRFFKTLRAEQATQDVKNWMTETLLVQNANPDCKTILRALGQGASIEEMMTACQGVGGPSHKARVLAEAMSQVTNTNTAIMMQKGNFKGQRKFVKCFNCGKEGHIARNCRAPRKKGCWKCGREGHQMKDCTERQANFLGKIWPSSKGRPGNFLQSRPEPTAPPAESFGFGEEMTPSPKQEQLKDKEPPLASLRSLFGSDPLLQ

For GRPE RNA, the Kd was over 1000 nM with 8N-Gag (Δp6) (HIV-1) [1]; 315 nM in data set [2]; 154 nM in the data set on 8N-Gag (Δp6) (HIV-1) [3]; 44.2 nM in data set [4]; 145 nM with 8N-Gag (Δp6) (HIV-1) [5].
Turning to Gag (from UniProt O93182), the Kd in data set [6] was 10000 nM.
Regarding HIV Ψ1 (monomeric HIV-1 Ψ RNA), the Kd in data set [2] came to 53.3 nM; with 8N-Gag (Δp6) (HIV-1) [3], 60 nM; in data set [7], 26 nM; in data set [4], 21.4 nM; in the data set on 8N-Gag (Δp6) (HIV-1) [5] it was 60 nM.
Turning to HIV Ψ2 (dimeric HIV-1 Ψ RNA), the Kd with 8N-Gag (Δp6) (HIV-1) [1] is over 1000 nM; in data set [2], 37 nM; in the data set with 8N-Gag (Δp6) (HIV-1) [3], 54.7 nM; in data set [4], 20.3 nM; in the data set on 8N-Gag (Δp6) (HIV-1) [5] it was 43.2 nM.
As for MoMLV Ψ RNA, the Kd in data set [2] amounted to 119 nM; with 8N-Gag (Δp6) (HIV-1) [3] it was 59 nM; in data set [4] it was 25.9 nM; in the data set on 8N-Gag (Δp6) (HIV-1) [5], 59.8 nM.

For orientation: Kd means the constant that tells how readily two partners part at equilibrium.
